Laboratory results: patent US20180148477A1 (published 2018)
Where “and” joins values, the source holds several entries; their conditions need not be identical. Identical values can stand only once. Bridge positions count the residues as written; N and C are the ends. Square brackets hold non-standard residues; d marks the D form. Ends that are not written are not given here. Phe(4-tBu) = CC(C)(C)c1ccc(C[C@H](N)C(=O)O)cc1; Bip = N[C@@H](Cc1ccc(-c2ccccc2)cc1)C(=O)O; 1Nal = N[C@@H](Cc1cccc2ccccc12)C(=O)O; 2Nal = N[C@@H](Cc1ccc2ccccc2c1)C(=O)O; NMeR = CN[C@@H](CCCNC(=N)N)C(=O)O; Tic = O=C(O)[C@@H]1Cc2ccccc2CN1; β3hE = N[C@@H](CCC(=O)O)CC(=O)O; NMeK = CN[C@@H](CCCCN)C(=O)O; Pen = CC(C)(S)[C@H](N)C(=O)O; dNMeK = CN[C@H](CCCCN)C(=O)O

Assays:
[1] = molecular target: T1, rh integrin α4β7 (R&D Systems #5397-A30) (human, UniProt P13612 34-970; P26010 20-723); assay: SPR, biotin peptide on streptavidin chip, soluble α4β7
T1 construct: Bought recombinant heterodimer, coated on a nickel plate; also called immobilized α4β7; soluble α4β7 integrin

[2] = molecular target: rh integrin α4β7 (R&D Systems #5397-A30) (human) (UniProt P13612); assay: competition ELISA vs MAdCAM-1
[3] = molecular target: human α4β7 integrin on cells (human) (UniProt P13612); assay: RPMI8866 adhesion to MAdCAM-1
[4] = molecular target: α4β1 (R&D Systems #5668-A4) (UniProt P13612); assay: competition ELISA vs VCAM-1
[5] = molecular target: mouse α4β7 integrin on TK1 cells (mouse) (UniProt Q00651); assay: TK1 adhesion to MAdCAM-1
[6] = molecular target: human α4β7 integrin on cells (human) (UniProt P13612); assay: FACS, human whole blood, 1 mM MnCl2; Basophils
[7] = molecular target: human α4β7 integrin on cells (human) (UniProt P13612); assay: FACS, human whole blood, 1 mM MnCl2; CD8 memory T cells
[8] = molecular target: human α4β7 integrin on cells (human) (UniProt P13612); assay: FACS, human whole blood, 1 mM MnCl2; CD4 memory T cells
[9] = molecular target: human α4β7 integrin on cells (human) (UniProt P13612); assay: FACS, human whole blood, 1 mM MnCl2; NK cells CD16+ 56+
[10] = molecular target: human α4β7 integrin on cells (human) (UniProt P13612); assay: FACS, human whole blood, 1 mM MnCl2; Eosinophils
[11] = molecular target: human α4β7 integrin on cells (human) (UniProt P13612); assay: FACS, human whole blood, 1 mM MnCl2; CD8 naïve T cells
[12] = molecular target: human α4β7 integrin on cells (human) (UniProt P13612); assay: FACS, human whole blood, 1 mM MnCl2; Monocytes
[13] = molecular target: rh integrin α4β7 (R&D Systems #5397-A30) (human) (UniProt P13612); assay: SPR, biotin antibody on streptavidin chip, soluble α4β7
[14] = molecular target: human α4β7 integrin on cells (human) (UniProt P13612); assay: FACS, human whole blood, 1 mM MnCl2; CD4 naïve T cells
[15] = molecular target: human α4β7 integrin on cells (human) (UniProt P13612); assay: FACS, human whole blood, 1 mM MnCl2; CD19+ B cells
[16] = molecular target: human α4β7 integrin on cells (human) (UniProt P13612); assay: FACS, human whole blood, 1 mM MnCl2; Neutrophils
[17] = molecular target: T1, rh integrin α4β7 (R&D Systems #5397-A30); assay: competition ELISA vs MAdCAM-1
[18] = molecular target: human α4β7 integrin on cells (human) (UniProt P13612); assay: PBMC memory T cell adhesion

Chain of mouse α4β7 integrin on TK1 cells (mouse) (Q00651 41-1039, chain 1 of 2): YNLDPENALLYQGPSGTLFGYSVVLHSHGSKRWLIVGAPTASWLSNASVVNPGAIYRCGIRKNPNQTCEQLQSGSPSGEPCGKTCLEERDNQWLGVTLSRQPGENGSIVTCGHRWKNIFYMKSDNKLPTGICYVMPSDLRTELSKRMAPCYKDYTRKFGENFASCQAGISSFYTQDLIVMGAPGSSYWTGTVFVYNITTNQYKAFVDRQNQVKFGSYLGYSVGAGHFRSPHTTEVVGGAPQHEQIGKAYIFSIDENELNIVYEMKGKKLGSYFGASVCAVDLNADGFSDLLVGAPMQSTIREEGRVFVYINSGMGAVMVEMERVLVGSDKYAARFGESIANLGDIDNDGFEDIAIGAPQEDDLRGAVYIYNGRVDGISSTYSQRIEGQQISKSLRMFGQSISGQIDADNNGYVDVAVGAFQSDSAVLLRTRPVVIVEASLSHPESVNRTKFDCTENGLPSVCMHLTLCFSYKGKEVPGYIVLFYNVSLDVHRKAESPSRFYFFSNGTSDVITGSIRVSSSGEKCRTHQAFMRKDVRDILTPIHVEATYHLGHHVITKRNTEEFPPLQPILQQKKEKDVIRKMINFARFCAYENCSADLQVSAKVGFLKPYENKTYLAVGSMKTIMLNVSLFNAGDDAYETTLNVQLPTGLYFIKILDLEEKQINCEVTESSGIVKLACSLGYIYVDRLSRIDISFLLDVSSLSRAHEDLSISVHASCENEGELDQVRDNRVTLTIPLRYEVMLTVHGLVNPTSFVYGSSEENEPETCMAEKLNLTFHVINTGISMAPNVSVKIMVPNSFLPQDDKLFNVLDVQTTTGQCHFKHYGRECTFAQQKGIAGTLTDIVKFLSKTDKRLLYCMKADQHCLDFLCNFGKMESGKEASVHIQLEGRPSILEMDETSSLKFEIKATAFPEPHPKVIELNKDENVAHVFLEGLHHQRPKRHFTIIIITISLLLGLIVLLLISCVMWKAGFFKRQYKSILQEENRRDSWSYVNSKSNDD
Chain of mouse α4β7 integrin on TK1 cells (mouse) (P26011 20-806, chain 2 of 2, further chain): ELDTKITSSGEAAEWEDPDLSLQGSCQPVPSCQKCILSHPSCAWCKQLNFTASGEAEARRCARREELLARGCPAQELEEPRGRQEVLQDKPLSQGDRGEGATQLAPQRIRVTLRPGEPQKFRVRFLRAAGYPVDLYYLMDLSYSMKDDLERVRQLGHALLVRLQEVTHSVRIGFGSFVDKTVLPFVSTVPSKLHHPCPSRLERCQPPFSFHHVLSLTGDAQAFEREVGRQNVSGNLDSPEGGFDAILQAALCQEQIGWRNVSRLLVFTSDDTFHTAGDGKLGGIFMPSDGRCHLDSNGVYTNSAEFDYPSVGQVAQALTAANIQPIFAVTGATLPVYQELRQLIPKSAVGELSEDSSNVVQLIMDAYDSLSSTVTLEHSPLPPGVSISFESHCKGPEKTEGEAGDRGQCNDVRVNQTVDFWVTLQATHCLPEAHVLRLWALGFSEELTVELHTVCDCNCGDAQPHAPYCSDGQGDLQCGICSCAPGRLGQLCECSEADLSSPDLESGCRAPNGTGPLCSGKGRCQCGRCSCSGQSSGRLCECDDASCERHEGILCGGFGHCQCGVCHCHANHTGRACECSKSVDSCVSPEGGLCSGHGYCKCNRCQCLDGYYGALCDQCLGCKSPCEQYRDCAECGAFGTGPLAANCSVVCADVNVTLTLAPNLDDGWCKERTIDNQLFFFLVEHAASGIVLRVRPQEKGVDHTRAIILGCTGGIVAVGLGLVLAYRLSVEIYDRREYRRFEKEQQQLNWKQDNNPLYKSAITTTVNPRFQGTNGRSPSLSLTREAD

| IC50 [2] [nM] | IC50 [3] [nM] | IC50 [4] [nM] | IC50 [5] [nM] | Binder | further results |
| --- | --- | --- | --- | --- | --- |
|  |  |  |  | Ac-[Pen][NMeR]SDTL[Pen][Phe(4-tBu)][β3hE][dK] (disulfide 1-7 (inferred); also: biotin attached via PEG linker, site not given here, dimer of two subunits joined by DIG linker, as Peptide X) [Peptide X-biotin] | half-life for dissociation [1]: 11.1 h and ~11 h |
| < 10 | > 10 | > 100 |  | Ac-[Pen][NMeR]SDTL[Pen][2Nal][dE][dK]-NH2 (disulfide 1-7; also: dimer via DIG) [SEQ ID NO: 33] |  |
| < 10 | < 10 | > 1000 | < 10 | Ac-[Pen][NMeR]SDTL[Pen][Bip][β3hE][NMeK]-NH2 (disulfide 1-7 (inferred); also: dimer via DIG linker) [SEQ ID NO: 150] |  |
|  |  |  |  | Vedolizumab-biotin (antibody, INN chains, looked up, V domains shown, biotin label) VH: QVQLVQSGAEVKKPGASVKVSCKGSGYTFTSYWMHWVRQAPGQRLEWIGEIDPSESNTNYNQKFKGRVTLTVDISASTAYMELSSLRSEDTAVYYCARGGYDGWDYAIDYWGQGTLVTVSS VL: DVVMTQSPLSLPVTPGEPASISCRSSQSLAKSYGNTYLSWYLQKPGQSPQLLIYGISNRFSGVPDRFSGSGSGTDFTLKISRVEAEDVGVYYCLQGTHQPYTFGQGTKVEIKR | Percent positive staining [6]: 86%; Percent positive staining [7]: 36%; Percent positive staining [8]: 22%; Percent positive staining [9]: 42%; Percent positive staining [10]: 91%; Percent positive staining [11]: 53%; Percent positive staining [12]: 7%; Half-life for dissociation [13]: 0.717 h; Kd [13]: 59.5 nM; koff [13]: 0.000266 s⁻¹; kon [13]: 4470 M⁻¹ s⁻¹; Percent positive staining [14]: 55%; Percent positive staining [15]: 85%; Percent positive staining [16]: 0.45% |
|  | > 25 | > 1000 | > 25 | Ac-[Pen][NMeR]SDTL[Pen][2Nal][β3hE]-NH2 (disulfide 1-7 (inferred)) [SEQ ID NO: 155] |  |
|  | > 100 | > 1000 | > 1000 | Ac-[Pen][NMeR]SDTL[Pen][Tic][β3hE]-NH2 (disulfide 1-7 (inferred)) [SEQ ID NO: 154] |  |
| < 10 | > 10 | > 100 |  | Ac-[Pen][NMeR]SDTL[Pen][1Nal][dE][dK]-NH2 (disulfide 1-7; also: dimer via DIG) [SEQ ID NO: 32] |  |
| 2 | 2.5 | 70 | 2.5 | Ac-[Pen][NMeR]SDTL[Pen][2Nal]E[dK]-NH2 (disulfide 1-7; also: dimer via DIG, attachment site not given here) [Peptide 212] |  |
|  |  |  |  | Ac-[Pen][NMeR]S[Prop acid]TL[Pen]WE[dK]-NH2 (disulfide 1-7) [SEQ ID NO: 47] | IC50 [17]: > 1000 nM |
| < 10 | < 10 | > 100 | < 10 | Ac-[Pen][NMeR]SDTL[Pen][1Nal]E[dNMeK]-NH2 (disulfide 1-7; also: dimer via DIG) [SEQ ID NO: 44] |  |
| < 10 | < 10 | > 500 |  | Ac-[Pen][NMeR]SDTL[Pen][1Nal][β3hE][NMeK]-NH2 (disulfide 1-7 (inferred); also: dimer via DIG linker) [SEQ ID NO: 142] | IC50 [18]: > 50 nM |
| < 10 | < 10 | > 100 |  | Ac-[Pen][NMeR]SDTL[Pen][1Nal][dE][dNMeK]-NH2 (disulfide 1-7; also: dimer via DIG) [SEQ ID NO: 38] |  |
| 11 | 40 | 200 | 60 | Ac-[Pen][NMeR]SDTL[Pen][2Nal]E[dK]-NH2 (disulfide 1-7; SMILES CC(=O)N[C@@H]1C(=O)N(C)[C@@H](CCCNC(=N)N)C(=O)N[C@@H](CO)C(=O)N[C@@H](CC(=O)O)C(=O)N[C@@H]([C@@H](C)O)C(=O)N[C@@H](CC(C)C)C(=O)N[C@H](C(=O)N[C@@H](Cc2ccc3ccccc3c2)C(=O)N[C@@H](CCC(=O)O)C(=O)N[C@H](CCCCN)C(N)=O)C(C)(C)SSC1(C)C) [Peptide 210] | IC50 [18]: 517 nM |
| < 10 | < 10 | > 100 |  | Ac-[Pen][NMeR]SDTL[Pen][2Nal]E[dNMeK]-NH2 (disulfide 1-7; also: dimer via DIG) [SEQ ID NO: 41] |  |
